Source: article PMC2673036, “Ancient mtDNA Genetic Variants Modulate mtDNA Transcription and Replication”

T1: TFAM (mitochondrial transcription factor A) (UniProt Q00059 43-246)
T1 sequence: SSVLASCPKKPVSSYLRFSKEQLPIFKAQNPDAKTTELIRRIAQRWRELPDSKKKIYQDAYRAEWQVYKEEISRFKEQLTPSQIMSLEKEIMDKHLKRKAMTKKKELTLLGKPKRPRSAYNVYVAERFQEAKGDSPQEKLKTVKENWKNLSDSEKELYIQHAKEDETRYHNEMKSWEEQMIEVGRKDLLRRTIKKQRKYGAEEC


Experiments:
[1] = biological target: T1, TFAM (mitochondrial transcription …); assay: EMSA; TFAM:probe 10:1 and 25:1; increased binding vs wt-295, exact value only in figure; 10 mM Tris-HCl pH 7.5, 10 mM KCl, 1 mM DTT, 1 mM EDTA, 6% glycerol; 3 nM probe, 30 or 75 nM TFAM; 30 min, room temperature; 5% native PAGE, 0.5x TBE; conditions: protein: recombinant; (PNK end label); blunt
[2] = biological target: T1, TFAM (mitochondrial transcription …); assay: EMSA; TFAM:probe 10:1 and 25:1; reference for normalization; 10 mM Tris-HCl pH 7.5, 10 mM KCl, 1 mM DTT, 1 mM EDTA, 6% glycerol; 3 nM probe, 30 or 75 nM TFAM; 30 min, room temperature; 5% native PAGE, 0.5x TBE; conditions: protein: recombinant; (PNK end label); blunt

Binder	binding signal [1]	binding signal [2]
C295T-VAR (haplogroup J, 276-303) (dsDNA) DNA 1: ACATCATAACAAAAAATTTTCACCAAAC DNA 2: GTTTGGTGAAAATTTTTTGTTATGATGT	> 1 relative to wt-295	–
wt-295 (CRS 276-303) (dsDNA) DNA 1: ACATCATAACAAAAAATTTCCACCAAAC DNA 2: GTTTGGTGGAAATTTTTTGTTATGATGT	–	1 relative to wt-295
